# Measurements published in the supplement of paper PMC6755084.
# B1: F1*; the commonest letter at each place (parent)
# chain: GAGACCGCAACTGAAAAGTTGTTATCACTTGTCGTAAGACACTTTGGATGGGTTGAAGTTCTGCACGTAGAAGCAAAAGGC
# Variants of: B1
# Assay: fraction ligated after 30 min (ligated reads / total reads); higher = more ligase activity
# Details: with F1*sub RNA substrate (template-directed ligation), 42 °C
# Procedure, shortened: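 Templates from an oligo pool were PCR-amplified, transcribed with T7 and gel-purified to give the ribozyme variants. Ligated and unligated products were separated on gel, reverse transcribed using barcoded primers, and read on a MiSeq. A quality filter of ≥20 was applied to core bases. Fraction ligated was taken as ligated reads as a share of all reads per variant.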
row,Variant,fraction ligated
1,G47A A57G,0.774
2,G47A A57T,0.77
3,G47A A57C,0.703
4,G50T G55A,0.455
5,G50T G55C,0.143
6,G50T G55T,0.123
7,G52A,0.827
8,G52C,0.726
9,G52T,0.695
10,G46A T49G,0.627
11,G46A T49C,0.38
12,G46A T49A,0.501
13,T49C G50C,0.455
14,T49C G50A,0.216
15,T49C G50T,0.714
16,G46C G55C,0.171
17,G46C G55T,0.674
18,G46C G55A,0.804
19,G46A A56G,0.487
20,G46A A56C,0.483
21,G46A A56T,0.645
22,G50A A56C,0.0252
23,G50A A56G,0.0277
24,G50A A56T,0.0351

row,Variant,fraction ligated
1,A48C,0.752
2,A48G,0.794
3,A48T,0.768
4,A48G A57T,0.795
5,A48G A57G,0.803
6,A48G A57C,0.792
7,G50A A57C,0.0747
8,G50A A57T,0.216
9,G50A A57G,0.251
10,G46C A56T,0.447
11,G46C A56G,0.315
12,G46C A56C,0.324
13,G55A A56C,0.729
14,G55A A56G,0.821
15,G55A A56T,0.8
16,A48T G50C,0.0873
17,A48T G50T,0.392
18,A48T G50A,0.158
19,A48C G50A,0.148
20,A48C G50C,0.17
21,A48C G50T,0.309
22,G46A G55C,0.224
23,G46A G55T,0.783
24,G46A G55A,0.786

row,Variant,fraction ligated
1,G46C A57T,0.76
2,G46C A57C,0.778
3,G46C A57G,0.712
4,G50C G55A,0.112
5,G50C G55C,0.0221
6,G50C G55T,0.0259
7,G55A A56T A57C,0.0139
8,G55A A56T A57G,0.143
9,G55A A56T A57T,0.161
10,G51A,0.797
11,G51C,0.812
12,G51T,0.792
13,G46T G50A,0.0502
14,G46T G50T,0.148
15,G46T G50C,0.0286
16,T49C A57C,0.266
17,T49C A57T,0.3
18,T49C A57G,0.445
19,T49A G55T,0.24
20,T49A G55C,0.129
21,T49A G55A,0.62
22,G47C A56T,0.0769
23,G47C A56C,0.0635
24,G47C A56G,0.0569

row,Variant,fraction ligated
1,T45G A48G,0.0747
2,T45G A48C,0.122
3,T45G A48T,0.187
4,T49A,0.777
5,T49C,0.731
6,T49G,0.778
7,T45G G46T,0.246
8,T45G G46A,0.032
9,T45G G46C,0.0668
10,T45A G47C,0.217
11,T45A G47T,0.205
12,T45A G47A,0.478
13,G47T T49G,0.261
14,G47T T49A,0.0948
15,G47T T49C,0.0788
16,G55A A56C A57T,0.151
17,G55A A56C A57C,0.0438
18,G55A A56C A57G,0.0754
19,G47T A57G,0.101
20,G47T A57T,0.0782
21,G47T A57C,0.0653
22,G55A A57C,0.786
23,G55A A57T,0.801
24,G55A A57G,0.833

row,Variant,fraction ligated
1,G47A A48T,0.803
2,G47A A48G,0.61
3,G47A A48C,0.723
4,G47A G50C,0.386
5,G47A G50A,0.381
6,G47A G50T,0.657
7,G47C A57G,0.0599
8,G47C A57T,0.0788
9,G47C A57C,0.0685
10,T45C G46T,0.263
11,T45C G46A,0.127
12,T45C G46C,0.268
13,G46T A57G,0.795
14,G46T A57T,0.754
15,G46T A57C,0.726
16,T45C A48T,0.00623
17,T45C A48C,0.112
18,T45C A48G,0.0929
19,T49A G50A,0.281
20,T49A G50T,0.769
21,T49A G50C,0.502
22,A48G G50T,0.235
23,A48G G50C,0.0771
24,A48G G50A,0.118

row,Variant,fraction ligated
1,A48C A57C,0.714
2,A48C A57T,0.719
3,A48C A57G,0.762
4,A48C G55T,0.5
5,A48C G55C,0.16
6,A48C G55A,0.743
7,G47A,0.788
8,G47C,0.236
9,G47T,0.37
10,A48T A57C,0.68
11,A48T A57T,0.546
12,A48T A57G,0.787
13,T45G G47T,0.0452
14,T45G G47C,0.194
15,T45G G47A,0.781
16,T45G A56T,0.79
17,T45G A56G,0.775
18,T45G A56C,0.187
19,G55C,0.778
20,G55A,0.822
21,G46T G47A,0.769
22,G46T G47C,0.0107
23,G46T G47T,0.0382
24,A48G G55T,0.686

row,Variant,fraction ligated
1,A48G G55A,0.787
2,A48G G55C,0.108
3,T49C A56G,0.0622
4,T49C A56T,0.0726
5,T49C A56C,0.0481
6,G47A A56G,0.098
7,G47A A56C,0.125
8,G47A A56T,0.181
9,A48T A56C,0.0454
10,A48T A56T,0.0621
11,A48T A56G,0.0654
12,A48G T49G,0.752
13,A48G T49A,0.678
14,A48G T49C,0.504
15,T45G G55A,0.045
16,T45G G55C,0.0194
17,T45G G55T,0.0383
18,T45C G55T,0.134
19,T45C G55C,0.0438
20,T45C G55A,0.521
21,G47C G50T,0.202
22,G47C G50A,0.059
23,G47C G50C,0.0335
